{
  "source": "paper PMC12197737",
  "biological_target": "recombinant TSWV-N protein (tomato spotted wilt virus nucleocapsid N protein) (Tomato spotted wilt virus (TSWV))",
  "assay": "cross-linking",
  "note": "“And” between values parts separate entries of the source, which are not always exact repeats. Identical values can stand only once.",
  "data": [
    {"substance": "recombinant TSWV-N protein (tomato spotted wilt virus nucleocapsid N protein) (natural protein)", "values": [
      {"measurement": "stoichiometry N", "value": "2 and 3"}
    ]}
  ]
}
